Laboratory results taken from US20260317446 (published 2026).

Key:
[1] = target: calmodulin; test: other dot blot
[2] = target: YKL-40 A249 (human); test: BLI
[3] = target: YKL-40 A300 (human); test: BLI
[4] = target: YKL-40 A250 (human); test: BLI
[5] = target: YKL-40 A172 (human); test: BLI
[6] = target: YKL-40 A175 (human); test: BLI
[7] = target: YKL-40 A134 (human); test: BLI
[8] = target: YKL-40 A104 (human); test: BLI
[9] = target: YKL-40 A93 (human); test: BLI
[10] = target: YKL-40 A149 (human); test: BLI
[11] = target: YKL-40 R301 (human); test: BLI
[12] = target: YKL-40 A100 (human); test: BLI
[13] = target: YKL-40 A96 (human); test: BLI
[14] = target: YKL-40 A287 (human); test: BLI
[15] = target: YKL-40 A302 (human); test: BLI
[16] = target: YKL-40 A135 (human); test: BLI
[17] = target: YKL-40 A286 (human); test: BLI
[18] = target: YKL-40 A108 (human); test: BLI
[19] = target: YKL-40 R284 (human); test: BLI
[20] = target: YKL-40 A192 (human); test: BLI
[21] = target: YKL-40 A191 (human); test: BLI
[22] = target: YKL-40 A107 (human); test: BLI
[23] = target: YKL-40 A145 (human); test: BLI
[24] = target: YKL-40 A148 (human); test: BLI
[25] = target: YKL-40 A146 (human); test: BLI
[26] = target: YKL-40 A141 (human); test: BLI
[27] = target: YKL-40 A289 (human); test: BLI
[28] = target: YKL-40 A92 (human); test: BLI
[29] = target: human YKL-40 WT (human); test: BLI
[30] = target: YKL-40 A142 (human); test: BLI
[31] = target: YKL-40 A42 (human); test: BLI
[32] = target: YKL-40 A44 (human); test: BLI
[33] = target: YKL-40 A283 (human); test: BLI
[34] = target: YKL-40 A256 (human); test: BLI
[35] = target: YKL-40 A194 (human); test: BLI
[36] = target: YKL-40 A288 (human); test: BLI

Sequence of YKL-40 A107 (human) (chain, as listed by the source): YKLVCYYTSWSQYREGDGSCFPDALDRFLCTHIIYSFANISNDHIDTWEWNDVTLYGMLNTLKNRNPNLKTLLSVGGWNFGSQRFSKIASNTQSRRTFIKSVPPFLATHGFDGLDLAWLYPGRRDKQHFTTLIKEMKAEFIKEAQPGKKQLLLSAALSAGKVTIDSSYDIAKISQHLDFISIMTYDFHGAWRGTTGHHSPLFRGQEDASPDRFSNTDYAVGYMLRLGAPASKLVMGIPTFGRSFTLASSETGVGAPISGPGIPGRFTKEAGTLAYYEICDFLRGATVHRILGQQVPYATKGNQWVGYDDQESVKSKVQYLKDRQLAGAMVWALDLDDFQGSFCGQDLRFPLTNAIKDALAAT
Sequence of YKL-40 A108 (human) (chain, as listed by the source): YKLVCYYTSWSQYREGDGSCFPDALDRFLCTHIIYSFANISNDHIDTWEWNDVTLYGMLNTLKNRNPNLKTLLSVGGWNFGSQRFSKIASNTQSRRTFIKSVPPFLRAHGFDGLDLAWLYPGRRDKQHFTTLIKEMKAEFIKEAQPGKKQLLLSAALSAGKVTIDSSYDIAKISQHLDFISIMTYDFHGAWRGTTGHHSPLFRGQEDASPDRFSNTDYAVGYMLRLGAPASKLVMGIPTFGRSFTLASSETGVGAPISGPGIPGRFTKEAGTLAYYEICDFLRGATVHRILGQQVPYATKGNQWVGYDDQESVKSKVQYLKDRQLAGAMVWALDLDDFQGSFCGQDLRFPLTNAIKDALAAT
Sequence of YKL-40 A134 (human) (chain, as listed by the source): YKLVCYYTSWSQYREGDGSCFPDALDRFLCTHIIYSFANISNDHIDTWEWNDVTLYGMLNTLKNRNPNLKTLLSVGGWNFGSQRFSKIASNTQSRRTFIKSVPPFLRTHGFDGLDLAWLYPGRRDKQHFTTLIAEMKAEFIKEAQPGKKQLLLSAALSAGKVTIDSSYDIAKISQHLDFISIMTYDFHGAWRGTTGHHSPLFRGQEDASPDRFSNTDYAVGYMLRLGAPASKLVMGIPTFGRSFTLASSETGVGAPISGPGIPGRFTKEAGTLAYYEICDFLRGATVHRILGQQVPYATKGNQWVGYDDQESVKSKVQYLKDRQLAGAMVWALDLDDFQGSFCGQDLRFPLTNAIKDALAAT
Sequence of YKL-40 A142 (human) (chain, as listed by the source): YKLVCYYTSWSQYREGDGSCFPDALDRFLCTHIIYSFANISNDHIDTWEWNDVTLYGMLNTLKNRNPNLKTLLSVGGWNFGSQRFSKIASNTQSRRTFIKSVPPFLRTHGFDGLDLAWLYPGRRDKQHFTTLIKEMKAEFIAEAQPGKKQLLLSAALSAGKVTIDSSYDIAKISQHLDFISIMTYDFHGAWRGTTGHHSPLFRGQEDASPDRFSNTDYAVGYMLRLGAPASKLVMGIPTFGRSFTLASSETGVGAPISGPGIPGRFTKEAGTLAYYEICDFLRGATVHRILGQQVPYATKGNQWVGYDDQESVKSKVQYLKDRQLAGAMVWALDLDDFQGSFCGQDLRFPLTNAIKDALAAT
Sequence of YKL-40 A256 (human) (chain, as listed by the source): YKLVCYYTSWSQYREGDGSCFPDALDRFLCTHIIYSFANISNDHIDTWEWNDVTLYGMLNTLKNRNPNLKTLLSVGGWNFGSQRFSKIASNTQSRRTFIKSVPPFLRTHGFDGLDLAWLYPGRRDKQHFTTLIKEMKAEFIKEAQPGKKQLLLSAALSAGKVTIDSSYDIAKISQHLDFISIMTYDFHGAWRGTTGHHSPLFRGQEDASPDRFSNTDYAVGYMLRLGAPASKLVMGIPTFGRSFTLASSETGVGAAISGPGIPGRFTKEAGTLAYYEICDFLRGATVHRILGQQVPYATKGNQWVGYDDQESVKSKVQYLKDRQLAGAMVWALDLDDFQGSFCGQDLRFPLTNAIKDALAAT
Sequence of YKL-40 A191 (human) (chain, as listed by the source): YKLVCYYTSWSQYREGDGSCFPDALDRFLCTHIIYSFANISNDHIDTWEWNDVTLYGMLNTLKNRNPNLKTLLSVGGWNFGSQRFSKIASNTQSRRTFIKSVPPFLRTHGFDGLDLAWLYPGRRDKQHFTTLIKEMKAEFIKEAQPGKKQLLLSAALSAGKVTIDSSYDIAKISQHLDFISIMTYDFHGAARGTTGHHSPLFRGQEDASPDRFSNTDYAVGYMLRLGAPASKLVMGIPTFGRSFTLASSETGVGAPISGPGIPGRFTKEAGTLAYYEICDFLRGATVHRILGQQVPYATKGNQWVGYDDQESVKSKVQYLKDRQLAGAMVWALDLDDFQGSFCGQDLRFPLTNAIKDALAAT
Sequence of YKL-40 R284 (human) (chain, as listed by the source): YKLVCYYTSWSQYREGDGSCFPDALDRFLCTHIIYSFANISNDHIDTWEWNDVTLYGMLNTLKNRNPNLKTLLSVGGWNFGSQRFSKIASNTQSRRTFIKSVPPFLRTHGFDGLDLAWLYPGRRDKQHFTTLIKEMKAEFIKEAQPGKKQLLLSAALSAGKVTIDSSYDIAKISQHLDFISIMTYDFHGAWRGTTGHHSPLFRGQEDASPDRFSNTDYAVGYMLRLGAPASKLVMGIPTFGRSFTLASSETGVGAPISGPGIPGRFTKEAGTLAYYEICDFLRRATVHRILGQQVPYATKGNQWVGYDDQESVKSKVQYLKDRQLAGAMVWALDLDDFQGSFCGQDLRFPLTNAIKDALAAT
Sequence of YKL-40 A250 (human) (chain, as listed by the source): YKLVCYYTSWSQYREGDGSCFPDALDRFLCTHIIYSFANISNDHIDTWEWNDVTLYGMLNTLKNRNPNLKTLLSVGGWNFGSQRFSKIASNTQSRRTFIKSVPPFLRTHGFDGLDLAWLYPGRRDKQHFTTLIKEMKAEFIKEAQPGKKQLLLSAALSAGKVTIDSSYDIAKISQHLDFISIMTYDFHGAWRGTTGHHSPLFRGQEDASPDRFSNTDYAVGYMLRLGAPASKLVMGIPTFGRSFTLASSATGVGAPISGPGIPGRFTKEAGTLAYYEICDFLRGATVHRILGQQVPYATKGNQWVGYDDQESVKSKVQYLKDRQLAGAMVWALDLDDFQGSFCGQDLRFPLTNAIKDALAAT
Sequence of YKL-40 A194 (human) (chain, as listed by the source): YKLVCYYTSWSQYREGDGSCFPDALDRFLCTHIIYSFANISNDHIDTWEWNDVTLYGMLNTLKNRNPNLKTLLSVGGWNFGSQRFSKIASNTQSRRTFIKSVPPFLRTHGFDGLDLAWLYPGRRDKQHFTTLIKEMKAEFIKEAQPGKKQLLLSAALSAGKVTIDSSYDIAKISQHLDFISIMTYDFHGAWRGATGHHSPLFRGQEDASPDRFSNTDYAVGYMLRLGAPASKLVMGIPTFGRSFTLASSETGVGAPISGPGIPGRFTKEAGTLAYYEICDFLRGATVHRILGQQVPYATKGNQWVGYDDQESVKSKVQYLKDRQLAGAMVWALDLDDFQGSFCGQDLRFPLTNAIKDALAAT
Sequence of YKL-40 A135 (human) (chain, as listed by the source): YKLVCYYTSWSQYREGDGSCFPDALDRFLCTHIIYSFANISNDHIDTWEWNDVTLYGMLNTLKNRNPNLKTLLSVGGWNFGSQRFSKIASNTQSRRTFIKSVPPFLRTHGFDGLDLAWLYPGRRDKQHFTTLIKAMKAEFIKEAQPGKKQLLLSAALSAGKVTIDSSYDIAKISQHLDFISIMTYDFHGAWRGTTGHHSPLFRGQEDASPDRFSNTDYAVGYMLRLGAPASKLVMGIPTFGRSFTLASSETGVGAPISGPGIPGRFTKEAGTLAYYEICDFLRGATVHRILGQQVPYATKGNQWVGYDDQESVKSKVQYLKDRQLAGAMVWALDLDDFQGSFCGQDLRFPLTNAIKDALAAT
Sequence of YKL-40 A286 (human) (chain, as listed by the source): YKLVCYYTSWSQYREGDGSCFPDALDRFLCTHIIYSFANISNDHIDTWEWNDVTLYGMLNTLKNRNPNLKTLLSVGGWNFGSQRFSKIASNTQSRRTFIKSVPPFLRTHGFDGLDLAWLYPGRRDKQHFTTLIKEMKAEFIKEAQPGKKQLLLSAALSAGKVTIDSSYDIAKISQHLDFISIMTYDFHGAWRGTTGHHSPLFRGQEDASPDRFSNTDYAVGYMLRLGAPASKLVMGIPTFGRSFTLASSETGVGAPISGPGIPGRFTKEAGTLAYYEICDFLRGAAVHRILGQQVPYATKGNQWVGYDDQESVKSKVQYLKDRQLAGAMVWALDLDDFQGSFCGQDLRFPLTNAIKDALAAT
Sequence of YKL-40 A145 (human) (chain, as listed by the source): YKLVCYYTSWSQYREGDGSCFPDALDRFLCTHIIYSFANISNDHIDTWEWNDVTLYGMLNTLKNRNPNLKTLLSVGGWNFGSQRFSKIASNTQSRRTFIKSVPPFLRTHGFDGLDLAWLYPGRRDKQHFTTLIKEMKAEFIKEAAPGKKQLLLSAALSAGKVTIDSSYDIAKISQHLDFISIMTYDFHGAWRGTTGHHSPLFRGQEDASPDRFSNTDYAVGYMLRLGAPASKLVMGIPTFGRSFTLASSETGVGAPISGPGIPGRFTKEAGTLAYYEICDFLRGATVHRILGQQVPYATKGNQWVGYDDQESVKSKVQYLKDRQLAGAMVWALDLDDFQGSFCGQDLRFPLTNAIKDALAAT
Sequence of YKL-40 A146 (human) (chain, as listed by the source): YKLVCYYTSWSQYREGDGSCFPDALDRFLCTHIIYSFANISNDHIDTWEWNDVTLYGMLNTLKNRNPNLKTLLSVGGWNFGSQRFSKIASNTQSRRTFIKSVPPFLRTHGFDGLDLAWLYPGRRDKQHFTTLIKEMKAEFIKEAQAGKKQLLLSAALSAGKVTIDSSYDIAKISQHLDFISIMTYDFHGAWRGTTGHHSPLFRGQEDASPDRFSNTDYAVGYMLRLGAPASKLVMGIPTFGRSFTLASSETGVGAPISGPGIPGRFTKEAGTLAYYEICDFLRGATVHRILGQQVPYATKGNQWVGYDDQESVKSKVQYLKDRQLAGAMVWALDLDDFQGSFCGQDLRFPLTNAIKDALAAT

B1: B3-hFc (antibody)
chain 1: MAEVQLLESGGGLVQPGGSLRLSCAASGFRDSDEDMGWVRQAPGKGLEWVSSISAPGGSTYYADSVKGRFTISRDNSKNTLYLQMNSLRAEDTAVYYCASHYNYGHWFDYWGQGTLVTVSSAA
chain 2: VECPPCPAPPVAGPSVFLFPPKPKDTLMISRTPEVTCVVVDVSHEDPEVQFNWYVDGMEVHNAKTKPREEQFNSTFRVVSVLTVVHQDWLNGKEYKCKVSNKGLPAPIEKTISKTKGQPREPQVYTLPPSREEMTKNQVSLTCLVKGFYPSDIAVEWESNGQPENNYKTTPPMLDSDGSFFLYSKLTVDKSRWQQGNVFSCSVMHEALHNHYTQKSLSLSPGK
- binding result [1]: no binding

B2: H7 (antibody, V domains shown)
VH: EVQLQQSGAELVKPGASVKLSCTASGFNIKDTYMHWVKQRPEQGLEWIGRIDPANGNTIYASKFQGKATITRDTSSNTAYMQLSSLTSGDTAVYYCTRGVYYYGGSFYAMDYWGQGTSVTVSS
VL: DIQMTQSPASLSASVGETVTITCGASENIYGALNWYQRKQGKSPQLLIYGATTLADGMSSRFSGSGSGRQYSLKISSLHPDDVATYYCQNVLTTPWTFGGGTKLEIKT
- Kd [2]: 2480 nM
- Kd [3]: 7260 nM
- Kd [4]: 120 nM
- Kd [5]: 0.655 nM
- Kd [6]: 0.684 nM
- Kd [7]: 0.516 nM
- Kd [8]: 0.423 nM
- Kd [9]: 0.777 nM
- Kd [10]: 0.84 nM
- Kd [11]: 0.753 nM
- Kd [12]: 0.906 nM
- Kd [13]: 0.558 nM
- Kd [14]: 164 nM
- Kd [15]: 0.673 nM
- Kd [16]: 0.755 nM
- Kd [17]: 0.472 nM
- Kd [18]: 0.529 nM
- Kd [19]: 52000 nM
- Kd [20]: 0.699 nM
- Kd [21]: 4800 nM
- Kd [22]: 0.611 nM
- Kd [23]: 0.465 nM
- Kd [24]: 0.817 nM
- Kd [25]: 0.773 nM
- Kd [26]: 0.638 nM
- Kd [27]: 0.693 nM
- Kd [28]: 33.9 nM
- Kd [29]: 1180 nM
- Kd [30]: 0.79 nM
- Kd [31]: 2540 nM
- Kd [32]: 0.439 nM
- Kd [33]: 1.07 nM
- Kd [34]: 104 nM
- Kd [35]: 20600 nM
- Kd [36]: 0.649 nM
